{"source": "patent US20170305985A1", "about": "(Stanford University, published 2017)", "binders": {"B1": {"name": "recombinant soluble Aras-4 (ligand)", "chain": "YAEGQGKRRNTIHEFKKSAKTTLIKIDPALRIKTEKANTADQCANRCTRSKGLPFTCKAFVFDKARKRCLWFPFNSMSSGVKKEFGHEFDLYENKAYIRDCIIGRGRNYRGTVSITKSGIKCQPWSAMIPHEHSFLPSSYRGEDLRENYCRNPRGEEGGPWCYTSDPEVRYEVCDIPQCSEVE"}}, "molecular_target": "Met receptor on Madine-Darby canine kidney (MDCK) cells (canine (MDCK cells), UniProt Q75ZY9 25-1382)", "test": "cell-based or functional assay", "data": [{"binder": "B1", "values": [{"measurement": "inhibition of HGF-induced activation of Met, MDCK cells", "value": "~5", "unit": "fold lower concentration"}]}]}
